{"source": "the DeepSol protein solubility set"}
{"assay": "soluble on expression in E. coli; label from the status in PepcDB or PDB records"}
{"sequence": "MSLGRGLYFNQAQKHFQQLLLMEERATIARELHDSLAQVLSYLRIQLTLLKRSIPEDNATAQSIMADFSQALNDAYRQLRELLTTFRLTLQQADLPSALREMLDTLQNQTSAKLTLDCRLPTLALDAQMQVHLLQIIREAVLNAMKHANASEIAVSCVTAPDGNHTVYIRDNGIGIGEPKEPEGHYGLNIMRERAERLGGTLTFSQPSGGGTLVSISFRSAEGEESQLMEGHHHHHH", "soluble on expression in E. coli": "soluble"}
{"sequence": "MSLGVKVDESFCLSDRDHIRKRPNMYVGSVNREAHERFIMGKFRKVEYVEGLVKIINEILDNSIDEAIRTDFKFANRIEVKIDHNLVTISDNGRGIPQDDVRTPEGKIVPKPVAAWTMAKSGSNFDDENRVTMGMNGVGSFLTNCYSSIFIGETSNGKRKVTINCTDGAQNMDYRTSPTKEQGTTVKFTPDFSIFGVDGIDEETKEVIKDRLMALAVAFPSVKFTYNGETLPNKFAMYGAMYGDSTITQTNNKISFILASTEDGFKQKSFVNGLDTKNGGVHVDCMIDGIYAELEPMIKKKHAIEIPKARVKECLTLVVFLHNFNAPAFDSQTKEKLTNTAGEFNNHAGLNYKKIAKQIMDTSEIITPIIESALIRKQAAEAAAITKEGHHHHHH", "soluble on expression in E. coli": "soluble"}
{"sequence": "MSLGVLFSPPPASAYDGVEFLEFAVDEAVGARLGNWLKRLGFAEAGKHRSKEVQLLRQGDINIVLNAEPYSFGHNFFEAHGPSLCATALRVKDQQAALKRATAFRGQPFRGLVGPNECEVPAVRAPDGSLLYLVEQGTAGHTLYDTDFSLDNNATATGGLRRIDHMALALPAESLDSWVLFYKSLFDFAADDEVVLPDPYGLVKSRALRSQCGTLRLPLNISENRNTAIAHALSSYRGSGVHHIAFDCDDIFREVARAKLAGVPLLEIPLNYYDDLAARFDFDDEFLSELAYYNVLYDRDAQGGELFHVYTEPFEERFFFEIIQRKAGYAGYGAANVAVRLAAMAKARSGAARKEGHHHHHH", "soluble on expression in E. coli": "soluble"}
{"sequence": "MSLGYIMDLRKELPNPHRPLIMCSAGIIIIDKKGRVLLQKRTDNNKWGLPGGSLELGESFEEAAIREAYEEVGLKVKSLSLFNVYSGKECYNKYPNGDEIYNASSIFISNDYEGEVILDGEESADAVFFKKVDIPSLEEVNPPDRIVIKDIIEKLNIEKYEGHHHHHH", "soluble on expression in E. coli": "not soluble"}
{"sequence": "MSLHSVAEREKRNAVHDSLTGLPNRKYCFELIDDRIQSGDPFSVILFDVVNFKQVNDAMGHFCGDQLLIQIGQRLQDKLKGSDKIFRVGGDEFVILTSSACEKTGTELIESLDCALSARFHLDEFQVSSRVVFGISTYPYDAISNDLLIKHADIAMYHAKRNGNLFAFYHDDMNVGAKYQLEISSRIQCALEKEEFQLYYQPLIDANTNLAVGFEAVIRWHDENGKTISPNDFIPIAERSNQVHNITMWVLGQVEKDLKTFIEKGIKLPVHVNLSAKDLSSNLLFHRLEKLLENNPQFADLISLEITETMAIDRVVELNPLIHQIKGLGIKISLDDFGTGYSSLSLLRDLPVDQIKIDRSFLCTANRTEGSRSIVENTIALAHGLGYSVVAEGVQDMDTLYFLRSRGCDIIQGYLFCPALPLNEVINWVNEHDDKQSHTRRAEGHHHHHH", "soluble on expression in E. coli": "soluble"}
{"sequence": "MSLIHPHIADALKVPDLVRLNDDLVLIRFESMKIYSALAAVRHLLERGTIRPGQTLIDSSSGIYAYALALACHRYGMRCHVVASTTVDTTTRAQLEILGATVEQVRPSRNLKLDQELRVRRVREILADHPDWHWMRQYHDDVHYLGYQEVADRITTAFPSTPLTVVGGVGSGASTGGLVERLRATDPSVRLVGVQPFGSVTFGSQAHHDPEAIIAGIGSSIVFDNVRHHLYDAVHWLDFTHAMSGTIALLRERAVFAGLSTGAGYLAATYEARRHPDRLHLVIGADTGHRYVERVFARHTEALDPAPLKPVEVSAPEEMSMPWSRMAWRRTAEGHHHHHH", "soluble on expression in E. coli": "soluble"}
{"sequence": "MSLIHYIPMFGKIKLTNLEIKMGNELISIKEEGDYFLYLRRDVERVIVGDYLQILPAPARGYGVKLMMVKLKRPIALAPGKSIEGFIQVPVEVSVKVGDSEIDRFGIGREKYALYGTLENGVIVRYCTGYIGNEPNGLGNLKVKIVNKGEDWGFIDRIVFPMLDLMYYSKDKAFYPLIRVEIQEDINVINTGEAPLPNLVSTGEEKSLRFRMRWEGHHHHHH", "soluble on expression in E. coli": "soluble"}
{"sequence": "MSLIPLRQNIASMKGYIPGYQPPDIASWIKLNTNENPYPPSPEVVKAILEELGPDGAALRIYPSASSQKLREVAGELYGFDPSWIIMANGSDEVLNNLIRAFAAEGEEIGYVHPSYSYYGTLAEVQGARVRTFGLTGDFRIAGFPERYEGKVFFLTTPNAPLGPSFPLEYIDELARRCAGMLVLDETYAEFAESNALELVRRHENVVVTRTLSKSYSLAGMRIGLAIARPEVIAALDKIRDHYNLDRLAQAACVAALRDQAYLSECCRRIRETREWFTTELRSIGYDVIPSQGNYLFATPPDRDGKRVYDGLYARKVLVRHFSDPLLAHGMRISIGTREEMEQTLAALKEIGEGHHHHHH", "soluble on expression in E. coli": "soluble"}
{"sequence": "MSLIQAIKAKIIVTPGHAPIKDSAVIVKNNIIEKIIPSTELKNNYYQIIDLKNSVVLPGFINSHIHLELHWVQKLLEPFKSFPSWLNQIIKLKKNFNNSKIPYWVNKSLNECINSGVTTIGEISSYDGLDYKPILDKKIRAVYFYELTNSTLKNIENKFFQSLIRNKTNPLINFRIFPHSIYSLDTKSLKRILAFAKKHNIKLGMHLSESIDEVKYSKRKRNNFEKEVFPKTSYKPTIETKPTTPLEYLDTLNINRQHITLIHMNNLSQNDFKILTKKEYPVIICPRSNLYLNQKLPNIKFFMNYMKTGLGTDGLSSNLSINFLDEINFLYLNAKKIINNPEEKILSIATIGGAKALGIDNEVGTIEKGKKADIIAFDLLNKNPYLSIIHSKKRNLKMSMINGKIIKLREGHHHHHH", "soluble on expression in E. coli": "soluble"}
{"sequence": "MSLIQGKAIIIGGGPCGLSAAIHLKQIGIDALVIEKGNVVNSIYNYPTHQTFFSSSEKLEIGDVAFITENRKPVRIQALSYYREVVKRKNIRVNAFEMVRKVTKTQNNTFVIETSKETYTTPYCIIATGYYDHPNYMGVPGEDLPKVFHYFKEGHPYFDKDVVVIGGKNSSVDAALELVKSGARVTVLYRGNEYSPSIKPWILPEFEALVRNGTIRMEFGACVEKITENEVVFRSGEKELITIKNDFVFAMTGYHPDHQFLEKIGVEIDKETGRPFFNEETMETNVEGVFIAGVIAAGNNANEIFIENGRFHGGHIAAEIAKRENHEGHHHHHH", "soluble on expression in E. coli": "soluble"}
{"sequence": "MSLIVITGASSGLGAELAKLYDAEGKATYLTGRSESKLSTVTNCLSNNVGYRARDLASHQEVEQLFEQLDSIPSTVVHSAGSGYFGLLQEQDPEQIQTLIENNLSSAINVLRELVKRYKDQPVNVVMIMSTAAQQPKAQESTYCAVKWAVKGLIESVRLELKGKPMKIIAVYPGGMATEFWETSGKSLDTSSFMSAEDAALMIHGALANIGNGYVSDITVNREGHHHHHH", "soluble on expression in E. coli": "soluble"}
{"sequence": "MSLIVNFHKVNLKKKYPLQISRGTHSKSQNLFVEIIKDGITGWGESAPGKTEGASNADEVEKWLLKLIDTGIDSLSIYEIFQRSKDLNIPPCVHAAIDIALWDWKAKKAGLPLNNLLGLPTPSTPTSLTIGINPPEIIKERVEMLLSNPQIKALKIKLGSPDGIEYDKSIYSQVLESTKKSNISIRVDANGGWSLDEAKLMMKWLAERKAEYIEQPLVEGEEDKLKYLFKSRPLPIFIDESCRFSEDVARHFEYVDGVNLKLMKCGGITEALRILNVAKSHNLKTMIGCMSESSISISAGASISGIIDYVDLDSHYNLDPDPSEGATMIDGITMNDNKPGHGSKLKIENYAEGHHHHHH", "soluble on expression in E. coli": "soluble"}
{"sequence": "MSLIYLHGFDSNSPGNHEKVLQLQFIDPDVRLVSYSTRHPKHDMQHLLKEVDKMLQLNVDERPLICGVGLGGYWAERIGFLCDIRQVVFNPNLFPYENMEGKIDRPEEYADIATKCVTNFREKNRDRCLVILSRHDEALDSQRSAQALHPFYEIVWDEEQTHKFKNISPYLQRIKAFKTLGEGHHHHHH", "soluble on expression in E. coli": "not soluble"}
{"sequence": "MSLKALIFDMDGVLVDSMPFHAAAWKKAFLEMGMEIQDEDIYAIEGSNPRNGLPLLIRKARKEPEDFDFEAITSIYRQEFNRIFKLKAFDGMKECLEFLKSRFLLSVVSGSDRLIVNGIVDQLFPGIFDTVVTGDDVLNSKPDPDPFLKAVELLNVGKEECVVIENAVLGVEAAKKADIYCIGVPTYVKPSELDRADLVVGNHQKLMEHLLSLEPLFSPEFIPGRREGHHHHHH", "soluble on expression in E. coli": "soluble"}
{"sequence": "MSLKCEYLIIGSGIAGYNALKELLQIKPNSRIIMITSDKYYPYDRPPLSKDYLKGKLEKDMLFFESDDFYKRDNLEVMLNKSVERIDANLKEAILNDGSVISFDKALISTGGRPRRLNIPGSENALYLRSLDDADRIREAASKGKNALIIGAGFIGVEVASSLITLGVKTTVVEVMPYIWNTFVDEKVSRVIQQYLESKGINFILNESVKEIQGKIATTSSGRKIEADMFLIAVGISPNVELAQRSGMQVDNGIVVNEYLETSARDIYAAGDIANIFDPREGKRKRIEHWNNAEYTGKLAARNMAGSREAYNFISSIWSDIFDLHIESAGETRNYDEYIIRGKFELERPRFSVIYLKGGIIKGYLAINRNVKEIIALNKLIQKQADVSSKRDKLADESFDLQKLLIEGHHHHHH", "soluble on expression in E. coli": "soluble"}
{"sequence": "MSLKDQVQLVKRRDSIRYEIVSIQDRLSFEKGFFAVIRACQLLSQKNDGIILVGVAGPSGAGKTVFTEKILNFLPSVAVISMDNYNDSSRIVDGNFDDPRLTDYDTLLKNLEDLKEGKQVEVPIYDFKSSSRVGYRTLDVPPSRIVIIEGIYALSEKLRPMLDLRVSVTGGVHFDLVKRVLRDIQRAGQQPEEIIHQISETVYPMYKAFIEPDLQTAQIKIINKFNPFTGFQSPTYILKSRKEGHHHHHH", "soluble on expression in E. coli": "not soluble"}
{"sequence": "MSLKEVAAKTGIGTLPEWNLGDLYMGIDAPEIAHDLAKMDAECVAFETDYKGKLAEHVARDDGGEWLAAAVRRYEAIDDLAGRLGSFAGLAHAGDSVDPAISKFYGDISERLTAASTHLLFFPLELNRIDDAVIERAMETPALGHYRPWIEDLRKDKPYQLEDRVEQLFHEKSQTGYSAWNRLFDQTIAGLRFQVGGKELAIEPTLNFLQDRDGAKRKAAAEALAKTFKANERTFALITNTLAKDKDISDRWRGFQDVADSRHLNNRVEREVVDALVASVRAAYPKLSHRYYQLKARWFKKKKLAHWDRNAPLPFAANATIAWPDAKNMVLTAYRGFSPEMADIAQRFFDQSWIDAPVRPGKAPGAFSHPTTPSAHPYVLMNYQGKPRDVMTLAHELGHGVHQVLAARQGALMAPTPLTLAETASVFGEMLTFKRLLSETRDAKQRQALLAGKVEDMINTVVRQIAFYSFERAVHTERKNGELTAERLGQIWLSVQTESLGEAIEIKPGYENFWMYIPHFIHSPFYVYAYAFGDCLVNSLYAVYEHAAEGFAERYLAMLAAGGTKHYSELLAPFGLDAKDPKFWDGGLSVIAGMIDELERMGEGHHHHHH", "soluble on expression in E. coli": "soluble"}
{"sequence": "MSLKFPRKGIPQEEVMRELEKYTSKDLSFSSGKILGSMCTLPHELAKEVFCMYMDRNLGDPGLHPGTKKIEEEVIEMLSDLLHLERGYGHIVSGGTEANILAVRAFRNLADVENPELILPKSAHFSFIKAGEMLGVKLIWADLNPDYTVDVKDVEAKISENTIGIVGIAGTTGLGVVDDIPALSDLARDYGIPLHVDAAFGGFVIPFAKELGYDLPDFDFKLKGVQSITIDPHKMGMAPIPAGGIVFRHKKYLRAISVLAPYLAGGKIWQATITGTRPGASVLAVWALIKHLGFEGYMEIVDRAMKLSRWFAEEIKKTPGAWLVREPMLNIVSFKTKNLRRVERELKSRGWGISAHRGYIRIVSHASCDGGHDEGHHHHHH", "soluble on expression in E. coli": "soluble"}
{"sequence": "MSLKFYEDGNIPEIPNMYFIYGDGGTGKTSLLKQLKGHKFVFSFDMSSNVLIGDKDVDVVIFEHNDAPNIQAMVEECIIRAIQNAKYQVIVLDNVTALQNLVLENIDNAAKDNRQNYQKLQLWFRDLGTILKESGKTIYATAHQLDNGSSGISGEGRFQADMNEKTFNAFTSMFDLVGRIYLAAGERMIDLDPEKGNHAKNRLDDRKLIKANELIQSEKGEGHHHHHH", "soluble on expression in E. coli": "soluble"}
